This is an account of results in PMC8546028.

For test [1], the target named is SM2-ΔC24 (deletion of 24 amino acids from C-terminus of SM2) (Synechococcus sp. phage S-ShM2). The test is described as follows: SEC-MALS; Superose-6 10/300 GL, room temperature (25 °C), 1 mg/ml (100 μl) injected, flow 0.2 ml/min; protein kept in 20 mM Tris, 200 mM NaCl, pH 8.0; self-association. In general terms: Size exclusion chromatography separates by hydrodynamic size, large species first.

The target in test [2] is SM2-ΔN14 (deletion of 14 amino acids from N-terminus of SM2) (Synechococcus sp. phage S-ShM2). The test is described as above.
The target is the same in test [3]. The test is described as follows: crystal structure; SM2-ΔN14 at 12 mg/ml, 0.2 M lithium sulphate monohydrate, 0.1 M Tris pH 8.5, 25% PEG 3350; space group I4, 7 Å, 3 dimers in the asymmetric unit; molecular replacement with the AgsA dimer (PDB 4ZJA).
Test [4] deals with SM2-ΔN40ΔC24 (deletion of 40 amino acids from N-terminus and 24 amino acids from C-terminus of SM2) (Synechococcus sp. phage S-ShM2). The experiment in a line: SEC-MALS; Superose-6 10/300 GL, room temperature (25 °C), 1 mg/ml (100 μl) injected, flow 0.2 ml/min; protein kept in 20 mM Tris, 200 mM NaCl, pH 8.0; self-association.
Test [5] concerns the target full length SM2 Tagged (SM2-FL), small heat shock protein HspSP-ShM2 of Synechococcus sp. phage S-ShM2 (Synechococcus sp. phage S-ShM2). Described as above.
Test [6] shares this target. The test is described as follows: cryo-EM structure; SM2-FL at 3 mg/ml on Quantifoil R2/1 grids, Talos Arctica 200 kV; one sample sorted into a large dataset (about 90%, 8 Å) and a small dataset (about 10%, 7.7 Å); the dimer of the crystal structure fitted to the maps.

Where “and” joins values, the source holds several entries; their conditions need not be identical. Equal entries are not always repeated.

One may read the stoichiometry N as a count of units in the complex or per binding partner. Regarding “SM2-ΔC24 (deletion of 24 amino acids from C-terminus of SM2) (domain or fragment)”, the stoichiometry N in test [1] was 2.

As to “SM2-ΔN14 (deletion of 14 amino acids from N-terminus of SM2) (domain or fragment)”, the stoichiometry N in test [2] and in test [3] was 24 in each case.

“SM2-ΔN40ΔC24 (deletion of 40 amino acids from N-terminus and 24 amino acids from C-terminus of SM2) (domain or fragment)”: the stoichiometry N in test [4] was 2.

In the case of “full length SM2 Tagged (SM2-FL), small heat shock protein HspSP-ShM2 of Synechococcus sp. phage S-ShM2 (natural protein)”, the stoichiometry N in test [5] was more than 40; in test [6], 60 and 48.
